These results are taken from patent US20240101638A1 (CURRUS BIOLOGICS, published 2024).

Several values for one entry are separate records, joined by “and”; a condition that tells them apart may be missing. Equal entries are not always repeated.

This assay has as its target T1, Mesothelin (Homo sapiens (Human), UniProt Q13421 296-598).
T1 construct: Soluble analyte in SPR at 0.15-111 nM
The experiment in a line: SPR, antibody as ligand, mesothelin as analyte. (Surface plasmon resonance follows binding to a sensor surface in real time, without labels.)

T1 sequence (Q13421 other isoform, or with tags, fused parts or gaps limits assumed): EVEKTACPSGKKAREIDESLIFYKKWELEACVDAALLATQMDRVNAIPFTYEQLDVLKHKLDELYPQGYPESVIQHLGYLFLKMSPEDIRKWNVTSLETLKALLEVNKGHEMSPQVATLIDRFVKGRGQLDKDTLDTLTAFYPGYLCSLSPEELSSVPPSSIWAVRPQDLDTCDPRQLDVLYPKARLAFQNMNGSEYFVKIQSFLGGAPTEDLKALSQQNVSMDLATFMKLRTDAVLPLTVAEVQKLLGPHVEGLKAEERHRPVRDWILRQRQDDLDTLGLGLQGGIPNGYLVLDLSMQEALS

B1: 7B1 IgG1 LALA anti-mesothelin antibody (antibody, V domains shown)
VH: EVHLVESGGGLVQPGGSLRLSCAASGFTFSRYWMSWVRQAQGKGLEWVASIKQAGSEKTYVDSVKGRFTISRDNAKNSLSLQMNSLRAEDTAVYYCAREGAYYYDSASYYPYYYYYSMDVWGQGTTVTVSS
VL: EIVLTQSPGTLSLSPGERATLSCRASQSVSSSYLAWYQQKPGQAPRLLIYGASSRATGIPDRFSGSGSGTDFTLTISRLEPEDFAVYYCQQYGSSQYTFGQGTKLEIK
notes: Tested as IgG1 with LALA mutations; It was the immobilised ligand in the SPR; two samples were measured; also called 7B1 IgG1 LALA AA cAb7385-10.16; 7b1 IgG1 LALA - Sample 1
By Kd is commonly meant the concentration at which binding is half-saturated. Read a low Kd as higher affinity. A word on the koff: it is the first-order rate constant of dissociation. For orientation: kon means a measure of how fast the partners come together. Read a high kon as fast association. As to B1, the Kd is 912 pM and 658 pM; the koff was 0.000189 s⁻¹ and 0.000132 s⁻¹; the kon is 207000 M⁻¹ s⁻¹ and 201000 M⁻¹ s⁻¹.
